Measured values: publication PMC3829318

Columns and labels:
[1] = activity after preincubation at 30 °C; conditions: glycan lost; control: rKOR1 WT
[2] = anti-KOR1 immunoblot of Sf21 culture medium; conditions: control: rKOR1 WT
[3] = (carboxymethyl)cellulose 4M hydrolysis, reducing sugar assay; conditions: control: rKOR1 WT
[4] = Golgi processing of remaining glycopeptides, LC-ESI-MS, N. benthamiana; conditions: glycan lost; control: wild-type KOR1-Fc-GFP

B1: KORRIGAN1 (KOR1): N345Q (protein)
parent chain: MYGRDPWGGPLEINTADSATDDDRSRNLNDLDRAALSRPLDETQQSWLLGPTEQKKKKYVDLGCIIVSRKIFVWTVGTLVAAALLAGFITLIVKTVPRHHPKTPPPDNYTIALHKALKFFNAQKSGKLPKHNNVSWRGNSGLQDGKGETGSFYKDLVGGYYDAGDAIKFNFPMAYAMTMLSWSVIEYSAKYEAAGELTHVKELIKWGTDYFLKTFNSTADSIDDLVSQVGSGNTDDGNTDPNDHYCWMRPEDMDYKRPVTTCNGGCSDLAAEMAAALASASIVFKDNKEYSKKLVHGAKVVYQFGRTRRGRYSAGTAESSKFYNSSMYWDEFIWGGAWMYYATGNVTYLNLITQPTMAKHAGAFWGGPYYGVFSWDNKLAGAQLLLSRLRLFLSPGYPYEEILRTFHNQTSIVMCSYLPIFNKFNRTNGGLIELNHGAPQPLQYSVNAAFLATLYSDYLDAADTPGWYCGPNFYSTSVLRDFARSQIDYILGKNPRKMSYVVGFGTKYPRHVHHRGASIPKNKVKYNCKGGWKWRDSKKPNPNTIEGAMVAGPDKRDGYRDVRMNYNYTEPTLAGNAGLVAALVALSGEEEATGKIDKNTIFSAVPPLFPTPPPPPAPWKP
With B1 the “stability_or_folding, other: residual activity after 120 min” value [1] was “no change, at least 90 vs at least 90”, the expression_or_secretion ([2]; glycan lost) was “no change” and the “enzymatic_activity, other: specific activity” value (from here on “enzymatic_activity, other”) ([3]; glycan lost) was “decreases, 271 ± 25 vs 374 ± 18”. The localisation_or_trafficking [4] was “no change”.

B2: KORRIGAN1 (KOR1): N408Q (protein)
parent chain: MYGRDPWGGPLEINTADSATDDDRSRNLNDLDRAALSRPLDETQQSWLLGPTEQKKKKYVDLGCIIVSRKIFVWTVGTLVAAALLAGFITLIVKTVPRHHPKTPPPDNYTIALHKALKFFNAQKSGKLPKHNNVSWRGNSGLQDGKGETGSFYKDLVGGYYDAGDAIKFNFPMAYAMTMLSWSVIEYSAKYEAAGELTHVKELIKWGTDYFLKTFNSTADSIDDLVSQVGSGNTDDGNTDPNDHYCWMRPEDMDYKRPVTTCNGGCSDLAAEMAAALASASIVFKDNKEYSKKLVHGAKVVYQFGRTRRGRYSAGTAESSKFYNSSMYWDEFIWGGAWMYYATGNVTYLNLITQPTMAKHAGAFWGGPYYGVFSWDNKLAGAQLLLSRLRLFLSPGYPYEEILRTFHNQTSIVMCSYLPIFNKFNRTNGGLIELNHGAPQPLQYSVNAAFLATLYSDYLDAADTPGWYCGPNFYSTSVLRDFARSQIDYILGKNPRKMSYVVGFGTKYPRHVHHRGASIPKNKVKYNCKGGWKWRDSKKPNPNTIEGAMVAGPDKRDGYRDVRMNYNYTEPTLAGNAGLVAALVALSGEEEATGKIDKNTIFSAVPPLFPTPPPPPAPWKP
With B2 the “stability_or_folding, other: residual activity after 120 min” value [1] was “no change, at least 90 vs at least 90”, the expression_or_secretion ([2]; glycan lost) was “no change” and the “enzymatic_activity, other” value ([3]; glycan lost) was “no change, 379 ± 18 vs 374 ± 18”. The localisation_or_trafficking [4] was “no change”.

B3: KORRIGAN1 (KOR1): N425Q (protein)
parent chain: MYGRDPWGGPLEINTADSATDDDRSRNLNDLDRAALSRPLDETQQSWLLGPTEQKKKKYVDLGCIIVSRKIFVWTVGTLVAAALLAGFITLIVKTVPRHHPKTPPPDNYTIALHKALKFFNAQKSGKLPKHNNVSWRGNSGLQDGKGETGSFYKDLVGGYYDAGDAIKFNFPMAYAMTMLSWSVIEYSAKYEAAGELTHVKELIKWGTDYFLKTFNSTADSIDDLVSQVGSGNTDDGNTDPNDHYCWMRPEDMDYKRPVTTCNGGCSDLAAEMAAALASASIVFKDNKEYSKKLVHGAKVVYQFGRTRRGRYSAGTAESSKFYNSSMYWDEFIWGGAWMYYATGNVTYLNLITQPTMAKHAGAFWGGPYYGVFSWDNKLAGAQLLLSRLRLFLSPGYPYEEILRTFHNQTSIVMCSYLPIFNKFNRTNGGLIELNHGAPQPLQYSVNAAFLATLYSDYLDAADTPGWYCGPNFYSTSVLRDFARSQIDYILGKNPRKMSYVVGFGTKYPRHVHHRGASIPKNKVKYNCKGGWKWRDSKKPNPNTIEGAMVAGPDKRDGYRDVRMNYNYTEPTLAGNAGLVAALVALSGEEEATGKIDKNTIFSAVPPLFPTPPPPPAPWKP
For B3, the “stability_or_folding, other: residual activity after 120 min” value [1] was “decreases, 69 vs at least 90”, the expression_or_secretion ([2]; glycan lost) was “no change” and the “enzymatic_activity, other” value ([3]; glycan lost) was “no change, 394 ± 34 vs 374 ± 18”. The localisation_or_trafficking [4] was “no change”.

B4: KORRIGAN1 (KOR1): N567Q (protein)
parent chain: MYGRDPWGGPLEINTADSATDDDRSRNLNDLDRAALSRPLDETQQSWLLGPTEQKKKKYVDLGCIIVSRKIFVWTVGTLVAAALLAGFITLIVKTVPRHHPKTPPPDNYTIALHKALKFFNAQKSGKLPKHNNVSWRGNSGLQDGKGETGSFYKDLVGGYYDAGDAIKFNFPMAYAMTMLSWSVIEYSAKYEAAGELTHVKELIKWGTDYFLKTFNSTADSIDDLVSQVGSGNTDDGNTDPNDHYCWMRPEDMDYKRPVTTCNGGCSDLAAEMAAALASASIVFKDNKEYSKKLVHGAKVVYQFGRTRRGRYSAGTAESSKFYNSSMYWDEFIWGGAWMYYATGNVTYLNLITQPTMAKHAGAFWGGPYYGVFSWDNKLAGAQLLLSRLRLFLSPGYPYEEILRTFHNQTSIVMCSYLPIFNKFNRTNGGLIELNHGAPQPLQYSVNAAFLATLYSDYLDAADTPGWYCGPNFYSTSVLRDFARSQIDYILGKNPRKMSYVVGFGTKYPRHVHHRGASIPKNKVKYNCKGGWKWRDSKKPNPNTIEGAMVAGPDKRDGYRDVRMNYNYTEPTLAGNAGLVAALVALSGEEEATGKIDKNTIFSAVPPLFPTPPPPPAPWKP
With B4 the “stability_or_folding, other: residual activity after 120 min” value [1] was “no change, at least 90 vs at least 90”, the expression_or_secretion ([2]; glycan lost) was “decreases” and the localisation_or_trafficking [4] was “no change”.

B5: KORRIGAN1 (KOR1): kifunensine (rKOR1 KIF) (protein)
parent chain: MYGRDPWGGPLEINTADSATDDDRSRNLNDLDRAALSRPLDETQQSWLLGPTEQKKKKYVDLGCIIVSRKIFVWTVGTLVAAALLAGFITLIVKTVPRHHPKTPPPDNYTIALHKALKFFNAQKSGKLPKHNNVSWRGNSGLQDGKGETGSFYKDLVGGYYDAGDAIKFNFPMAYAMTMLSWSVIEYSAKYEAAGELTHVKELIKWGTDYFLKTFNSTADSIDDLVSQVGSGNTDDGNTDPNDHYCWMRPEDMDYKRPVTTCNGGCSDLAAEMAAALASASIVFKDNKEYSKKLVHGAKVVYQFGRTRRGRYSAGTAESSKFYNSSMYWDEFIWGGAWMYYATGNVTYLNLITQPTMAKHAGAFWGGPYYGVFSWDNKLAGAQLLLSRLRLFLSPGYPYEEILRTFHNQTSIVMCSYLPIFNKFNRTNGGLIELNHGAPQPLQYSVNAAFLATLYSDYLDAADTPGWYCGPNFYSTSVLRDFARSQIDYILGKNPRKMSYVVGFGTKYPRHVHHRGASIPKNKVKYNCKGGWKWRDSKKPNPNTIEGAMVAGPDKRDGYRDVRMNYNYTEPTLAGNAGLVAALVALSGEEEATGKIDKNTIFSAVPPLFPTPPPPPAPWKP
With B5 the expression_or_secretion ([2]; glycan changed form) was “no change” and the “enzymatic_activity, other” value ([3]; glycan changed form) was “no change, 402 ± 40 vs 374 ± 18”.

B6: KORRIGAN1 (KOR1): N216Q (protein)
parent chain: MYGRDPWGGPLEINTADSATDDDRSRNLNDLDRAALSRPLDETQQSWLLGPTEQKKKKYVDLGCIIVSRKIFVWTVGTLVAAALLAGFITLIVKTVPRHHPKTPPPDNYTIALHKALKFFNAQKSGKLPKHNNVSWRGNSGLQDGKGETGSFYKDLVGGYYDAGDAIKFNFPMAYAMTMLSWSVIEYSAKYEAAGELTHVKELIKWGTDYFLKTFNSTADSIDDLVSQVGSGNTDDGNTDPNDHYCWMRPEDMDYKRPVTTCNGGCSDLAAEMAAALASASIVFKDNKEYSKKLVHGAKVVYQFGRTRRGRYSAGTAESSKFYNSSMYWDEFIWGGAWMYYATGNVTYLNLITQPTMAKHAGAFWGGPYYGVFSWDNKLAGAQLLLSRLRLFLSPGYPYEEILRTFHNQTSIVMCSYLPIFNKFNRTNGGLIELNHGAPQPLQYSVNAAFLATLYSDYLDAADTPGWYCGPNFYSTSVLRDFARSQIDYILGKNPRKMSYVVGFGTKYPRHVHHRGASIPKNKVKYNCKGGWKWRDSKKPNPNTIEGAMVAGPDKRDGYRDVRMNYNYTEPTLAGNAGLVAALVALSGEEEATGKIDKNTIFSAVPPLFPTPPPPPAPWKP
In the case of B6, the “stability_or_folding, other: residual activity after 120 min” value [1] is reported as “no change, at least 90 vs at least 90”, the expression_or_secretion ([2]; glycan lost) is reported as “no change” and the “enzymatic_activity, other” value ([3]; glycan lost) is reported as “decreases, 244 ± 25 vs 374 ± 18”. For the same protein, the localisation_or_trafficking [4] was “no change”.

B7: KORRIGAN1 (KOR1): N324Q (protein)
parent chain: MYGRDPWGGPLEINTADSATDDDRSRNLNDLDRAALSRPLDETQQSWLLGPTEQKKKKYVDLGCIIVSRKIFVWTVGTLVAAALLAGFITLIVKTVPRHHPKTPPPDNYTIALHKALKFFNAQKSGKLPKHNNVSWRGNSGLQDGKGETGSFYKDLVGGYYDAGDAIKFNFPMAYAMTMLSWSVIEYSAKYEAAGELTHVKELIKWGTDYFLKTFNSTADSIDDLVSQVGSGNTDDGNTDPNDHYCWMRPEDMDYKRPVTTCNGGCSDLAAEMAAALASASIVFKDNKEYSKKLVHGAKVVYQFGRTRRGRYSAGTAESSKFYNSSMYWDEFIWGGAWMYYATGNVTYLNLITQPTMAKHAGAFWGGPYYGVFSWDNKLAGAQLLLSRLRLFLSPGYPYEEILRTFHNQTSIVMCSYLPIFNKFNRTNGGLIELNHGAPQPLQYSVNAAFLATLYSDYLDAADTPGWYCGPNFYSTSVLRDFARSQIDYILGKNPRKMSYVVGFGTKYPRHVHHRGASIPKNKVKYNCKGGWKWRDSKKPNPNTIEGAMVAGPDKRDGYRDVRMNYNYTEPTLAGNAGLVAALVALSGEEEATGKIDKNTIFSAVPPLFPTPPPPPAPWKP
For B7, the “stability_or_folding, other: residual activity after 120 min” value [1] was “no change, at least 90 vs at least 90”, the expression_or_secretion ([2]; glycan lost) was “no change” and the “enzymatic_activity, other” value ([3]; glycan lost) was “decreases, 307 ± 8 vs 374 ± 18”. The localisation_or_trafficking [4] was “no change”.

B8: KORRIGAN1 (KOR1): N216Q/N324Q/N345Q (protein)
parent chain: MYGRDPWGGPLEINTADSATDDDRSRNLNDLDRAALSRPLDETQQSWLLGPTEQKKKKYVDLGCIIVSRKIFVWTVGTLVAAALLAGFITLIVKTVPRHHPKTPPPDNYTIALHKALKFFNAQKSGKLPKHNNVSWRGNSGLQDGKGETGSFYKDLVGGYYDAGDAIKFNFPMAYAMTMLSWSVIEYSAKYEAAGELTHVKELIKWGTDYFLKTFNSTADSIDDLVSQVGSGNTDDGNTDPNDHYCWMRPEDMDYKRPVTTCNGGCSDLAAEMAAALASASIVFKDNKEYSKKLVHGAKVVYQFGRTRRGRYSAGTAESSKFYNSSMYWDEFIWGGAWMYYATGNVTYLNLITQPTMAKHAGAFWGGPYYGVFSWDNKLAGAQLLLSRLRLFLSPGYPYEEILRTFHNQTSIVMCSYLPIFNKFNRTNGGLIELNHGAPQPLQYSVNAAFLATLYSDYLDAADTPGWYCGPNFYSTSVLRDFARSQIDYILGKNPRKMSYVVGFGTKYPRHVHHRGASIPKNKVKYNCKGGWKWRDSKKPNPNTIEGAMVAGPDKRDGYRDVRMNYNYTEPTLAGNAGLVAALVALSGEEEATGKIDKNTIFSAVPPLFPTPPPPPAPWKP
With B8 the localisation_or_trafficking [4] was “no change”.
